Assay results reported in patent US20200123214A1 (published 2020).
Blank lines part the entries; values can stand above or below the molecule they belong to.

Columns and labels:
[1] = target: T1, recombinant human CSF1 protein (human) (UniProt P09603); experiment: SPR, BioRad ProteOn XPR 360
T1 sequence (looked up): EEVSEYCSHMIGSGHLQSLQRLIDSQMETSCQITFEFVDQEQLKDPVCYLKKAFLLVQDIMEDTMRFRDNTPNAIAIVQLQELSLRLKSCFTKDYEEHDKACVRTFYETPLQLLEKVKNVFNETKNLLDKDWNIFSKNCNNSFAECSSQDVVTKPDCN

[2] = target: T2, murine CD40 overexpressed on CHO-K1 cells (CHOK1/CD40) (murine, UniProt P27512 20-289); experiment: flow cytometry on CHOK1/CD40 cells
T2 construct: whole, on cells; also called mCD40
T2 sequence (looked up): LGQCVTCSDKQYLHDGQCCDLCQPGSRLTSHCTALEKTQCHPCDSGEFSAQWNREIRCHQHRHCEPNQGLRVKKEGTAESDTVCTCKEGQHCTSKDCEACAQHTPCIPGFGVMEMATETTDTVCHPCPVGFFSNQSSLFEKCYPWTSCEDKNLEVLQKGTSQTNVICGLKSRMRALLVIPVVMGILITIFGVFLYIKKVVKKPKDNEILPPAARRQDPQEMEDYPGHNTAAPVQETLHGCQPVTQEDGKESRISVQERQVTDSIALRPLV
Procedure: For cell binding assays, immortalized cell lines were engineered to stably express CD40 (CHOK1/CD40). Increasing concentrations of the murine CSF1R-Fc-CD40L chimeric protein were incubated with the over-expressing (CHOK1/CD40) cell line for 2 hours. Cells were collected, washed, and stained with antibodies for the detection of chimeric protein binding by flow cytometry.
As a negative control, there was no detectable binding to the parental (non-CD40 expressing) CHOK1 cell line.

Kd [1]: 0.275 nM
koff [1]: 0.000335 s⁻¹
kon [1]: 1.22e+06 M⁻¹ s⁻¹
Molecule: CSF1R-Fc (Fc fusion)

EC50 [2]: 91.1 nM
B1: murine CSF1R-Fc-CD40L chimeric protein (Fc fusion, UniProt P09581 20-515, looked up)
chain: APVIEPSGPELVVEPGETVTLRCVSNGSVEWDGPISPYWTLDPESPGSTLTTRNATFKNTGTYRCTELEDPMAGSTTIHLYVKDPAHSWNLLAQEVTVVEGQEAVLPCLITDPALKDSVSLMREGGRQVLRKTVYFFSPWRGFIIRKAKVLDSNTYVCKTMVNGRESTSTGIWLKVNRVHPEPPQIKLEPSKLVRIRGEAAQIVCSATNAEVGFNVILKRGDTKLEIPLNSDFQDNYYKKVRALSLNAVDFQDAGIYSCVASNDVGTRTATMNFQVVESAYLNLTSEQSLLQEVSVGDSLILTVHADAYPSIQHYNWTYLGPFFEDQRKLEFITQRAIYRYTFKLFLNRVKASEAGQYFLMAQNKAGWNNLTFELTLRYPPEVSVTWMPVNGSDVLFCDVSGYPQPSVTWMECRGHTDRCDEAQALQVWNDTHPEVLSQKPFDKVIIQSQLPIGTLKHNMTYFCKTHNSVGNSSQYFRAVSLGQSKQLPDESLFTPHRRLDKVEEEVNLHEDFVFIKKLKRCNKGEGSLSLLNCEEMRRQFEDLVKDITLNKEEKKENSFEMQRGDEDPQIAAHVVSEANSNAASVLQWAKKGYYTMKSNLVMLENGKQLTVKREGLYYVYTQVTFCSNREPSSQRPFIVGLWLKPSSGSERILLKAANTHSSSQLCEQQSVHLGGVFELQAGASVFVNVTEASQVIHRVGFSSFGLLKL
notes: constructed 'as described above in the Detailed Description and in U.S. 62/464,002'; also called mCSF1R-Fc-CD40L; mCD115-Fc-CD40L; not shown: Fc linker of the murine chimera
